FireProtDB
Where “and” joins values, the source holds several entries; their conditions need not be identical. Equal values may be shown once.

Details: whole UniProt chain shown
[1] = Salmonella typhimurium (strain LT2 / SGSC1412 / ATCC 700720), pH 9.01, Thermal, DSC, sodium tetraborate 1 mM
[2] = Halobacterium salinarum (strain ATCC 700922 / JCM 11081 / NRC-1), pH 7, Thermal, DSC, phosphate 0.1 M

B1: Alpha-lactalbumin wild type, P00711 (protein)
chain: MMSFVSLLLVGILFHATQAEQLTKCEVFRELKDLKGYGGVSLPEWVCTTFHTSGYDTQAIVQNNDSTEYGLFQINNKIWCKDDQNPHSSNICNISCDKFLDDDLTDDIMCVKKILDKVGINYWLAHKALCSEKLDQWLCEKL
Tm (Bos taurus, pH 6, Thermal, DSC, Unknown): 59 °C

B2: Formate dehydrogenase wild type, O13437 (protein)
chain: MKIVLVLYDAGKHAADEEKLYGCTENKLGIANWLKDQGHELITTSDKEGETSELDKHIPDADIIITTPFHPAYITKERLDKAKNLKLVVVAGVGSDHIDLDYINQTGKKISVLEVTGSNVVSVAEHVVMTMLVLVRNFVPAHEQIINHDWEVAAIAKDAYDIEGKTIATIGAGRIGYRVLERLLPFNPKELLYYDYQALPKEAEEKVGARRVENIEELVAQADIVTVNAPLHAGTKGLINKELLSKFKKGAWLVNTARGAICVAEDVAAALESGQLRGYGGDVWFPQPAPKDHPWRDMRNKYGAGNAMTPHYSGTTLDAQTRYAEGTKNILESFFTGKFDYRPQDIILLNGEYVTKAYGKHDKK
Tm (Candida boidinii): 59 °C

B3: Tryptophan synthase alpha chain wild type, P00929 (protein)
chain: MERYENLFAQLNDRREGAFVPFVTLGDPGIEQSLKIIDTLIDAGADALELGVPFSDPLADGPTIQNANLRAFAAGVTPAQCFEMLALIREKHPTIPIGLLMYANLVFNNGIDAFYARCEQVGVDSVLVADVPVEESAPFRQAALRHNIAPIFICPPNADDDLLRQVASYGRGYTYLLSRSGVTGAENRGALPLHHLIEKLKEYHAAPALQGFGISSPEQVSAAVRAGAAGAISGSAIVKIIEKNLASPKQMLAELRSFVSAMKAASRA
Tm [1]: 46.2 °C
unfolding enthalpy (van 't Hoff) [1]: 3.68 kcal/mol

B4: wild type, Q72LK2 (protein)
chain: MEATLPVLDAKTAALKRRSIRRYRKDPVPEGLLREILEAALRAPSAWNLQPWRIVVVRDPATKRALREAAFGQAHVEEAPVVLVLYADLEDALAHLDEVIHPGVQGERREAQKQAIQRAFAAMGQEARKAWASGQSYILLGYLLLLLEAYGLGSVPMLGFDPERVKAILGLPSHAAIPALVALGYPAEEGYPSHRLPLERVVLWR
Tm (Thermus thermophilus (strain ATCC BAA-163 / DSM 7039 / HB27)): 30 °C

B5: FMN-dependent NADH:quinone oxidoreductase 1 wild type, Q88IY3 (protein)
chain: MKLLHIDSSILGDNSASRQLSREVVEAWKAADPSVEVVYRDLAADAIAHFSAATLVAAGTPEDVRDAAQAFEAKLSAETLEEFLAADAVVIGAPMYNFTVPTQLKAWIDRVAVAGKTFRYTEAGPQGLCGNKKVVLVSTAGGLHAGQPTGAGHEDFLKVFLGFIGITDLEIVRAHGLAYGPEQRSQAIDAAQAQIASELFAAA
Tm (Pseudomonas putida (strain ATCC 47054 / DSM 6125 / CFBP 8728 / NCIMB 11950 / KT2440), Fluorescence spectroscopy): 47 °C

B6: Bacteriorhodopsin wild type, P02945 (protein)
chain: MLELLPTAVEGVSQAQITGRPEWIWLALGTALMGLGTLYFLVKGMGVSDPDAKKFYAITTLVPAIAFTMYLSMLLGYGLTMVPFGGEQNPIYWARYADWLFTTPLLLLDLALLVDADQGTILALVGADGIMIGTGLVGALTKVYSYRFVWWAISTAAMLYILYVLFFGFTSKAESMRPEVASTFKVLRNVTVVLWSAYPVVWLIGSEGAGIVPLNIETLLFMVLDVSAKVGFGLILLRSRAIFGEAEAPEPSAGDGAAATSD
unfolding enthalpy (calorimetric) [2]: 50 kcal/mol and 86 kcal/mol and 104 kcal/mol
unfolding enthalpy (van 't Hoff) [2]: 71 kcal/mol and 125 kcal/mol and 155 kcal/mol
